Columns and labels:
[1] = target: T1, HLA-A2 molecules (Homo sapiens, UniProt P04439, D140Y/D185E/D98H/E176V/E277Q/G131W/G231S/I119V/I121R/I166T/I218V/L300P/L318F/N151K/N90K/P208A/P217A/Q86G/Q94H/R138H/R169H/T345S); experiment: T2 cell-binding assay: regulation of HLA-A2 expression on T2 cells by flow cytometry; details: for T2 Binding: peptide 25 μg/mL, T2 cells, flow cytometry
T1 construct: endogenous in cells; host or cells: T2 cells
From the text: FIG. 1B is a graph depicting the binding of the P703 and P215 peptides to HLA-A2 molecules at various peptide concentrations. Peptide concentration (μg/mL) is on the x-axis, and mean fluorescence intensity (MFI) is on the y-axis. The positive control peptide is MUC-1, and the negative control peptide is CAP-7.
The T2 binding values are expressed in mean fluorescence intensity. The values in parentheses are fold increases as compared with the negative control (CAP-7 peptide).

[2] = target: T1, HLA-A2 molecules; experiment: Stability of peptide-HLA-A2 complexes on T2 cells after brefeldin A; assay type: binding; details: peptide 25 μg/mL overnight with T2 cells, various time points
Protocol: FIG. 1A is a graph depicting the stability of HLA-A2/NGEP complexes for various peptides. The time post-treatment with brefeldin A (hours) is on the x-axis, and the percentage of remaining complexes is on the y-axis. Results are expressed in relative percentage of binding compared to 100% at time 0.
To determine the stability of peptide-MHC complexes, several of the identified peptides (at concentrations of 25 μg/mL) were incubated with T2 cells overnight. Unbound peptides were washed off, and delivery of new class 1 molecules to the cell surface was blocked by the addition of brefeldin A. Cells then were analyzed for the presence of peptide-HLA-A2 complexes at various time points, as indicated by the degree of mean fluorescence intensity. […] P703 peptide also was determined to bind T2 cells at higher levels at various peptide concentrations than the P215 peptide and the positive control (see FIG. 1B).

[3] = tested on: CD8+ T cells in PBMC; experiment: Tetramer staining of PBMC from healthy donors and prostate cancer patients; assay type: cell-based, human; details: Patients 2, 3 and 4 of four, pre-vaccination
Protocol: To determine if prostate cancer patients recognized the NGEP-P703 epitope, PBMC from four patients with metastatic prostate cancer and from four healthy donors were analyzed for the presence of CD8^+ T cells reactive with the NGEP-P703 tetramer. T cells (5×10^5) were stained with 10 μl of PE-labeled NGEP-P703/HLA-A*0201 tetramer and anti-CD8 antibody.
These same four prostate cancer patients then were analyzed for tetramer binding after receiving six monthly cycles of a PSA-based vaccine (PSA/TRICOM).

| T2 Binding [1] | Sequence | other results |
| --- | --- | --- |
| 565 mean fluorescence intensity | GLFDEYLEMV [Peptide P703, NGEP long form amino acids 703-712] | Stability of peptide-HLA-A2 complexes (FIG. 1A) [2]: most stable complexes; Binding to T2 cells at various peptide concentrations (FIG. 1B) ([1]; compared with P215 peptide and positive control): higher levels; Frequency of NGEP-P703 specific CD8+ T cells, prostate cancer patients versus healthy donors [3]: higher frequency |
| 203 mean fluorescence intensity | IVFEHVVFSV [Peptide P855, NGEP long form amino acids 855-864] |  |
| 354 mean fluorescence intensity | WLLPAAVVGT [Peptide P356, NGEP long form amino acids 356-365] |  |
| 280 mean fluorescence intensity | ILFEILAKT [Peptide P258, NGEP long form amino acids 258-266] |  |
| 126 mean fluorescence intensity | LLAIRLWAV [Peptide P846, NGEP long form amino acids 846-854] |  |

Further lines, the sequence ahead of its results:

| Sequence | T2 Binding [1] | other results |
| --- | --- | --- |
| LVWEEDLKL [Peptide P113, NGEP short form amino acids 113-121] | 367 mean fluorescence intensity |  |
| HLFGYSWYK [CAP-7, reference compound] | 88.0 mean fluorescence intensity |  |
| VLLEVVPDV [Peptide P215, NGEP long form amino acids 215-223] | 464 mean fluorescence intensity |  |
| GLGGPPLPTL [Peptide P10, NGEP short form amino acids 10-19] | 212 mean fluorescence intensity |  |
| FLDNIRAAGL [Peptide P143, NGEP short form amino acids 143-152] | 203 mean fluorescence intensity |  |
| SLSYTNPAV [MUC-1, reference compound] | 452 mean fluorescence intensity |  |
| ALLSASWAV [Peptide P170, NGEP long form amino acids 170-178] | 185 mean fluorescence intensity |  |

— patent publication US8748390B2, “Immunogenic epitopes of NGEP antigen” (The United States of America, as represented by the …, priority 2009, dated 2014)
